The values below are quoted from earlier work in patent US20180296542A1, “IMINOSUGARS FOR IMPROVING BONE MINERAL DENSITY IN BONE DISEASE” (Saint Louis University, priority 2015, published 2018).

The data set concerns Akp2^−/− mice. Particulars: cited from earlier work.

B1: untagged, native human TNSALP: untagged, native human tissue nonspecific alkaline phosphatase used for ERT in Akp2−/− mice (protein, UniProt P05186 18-501, looked up)
Alkaline phosphatase, …: LVPEKEKDPKYWRDQAQETLKYALELQKLNTNVAKNVIMFLGDGMGVSTVTAARILKGQLHHNPGEETRLEMDKFPFVALSKTYNTNAQVPDSAGTATAYLCGVKANEGTVGVSAATERSRCNTTQGNEVTSILRWAKDAGKSVGIVTTTRVNHATPSAAYAHSADRDWYSDNEMPPEALSQGCKDIAYQLMHNIRDIDVIMGGGRKYMYPKNKTDVEYESDEKARGTRLDGLDLVDTWKSFKPRYKHSHFIWNRTELLTLDPHNVDYLLGLFEPGDMQYELNRNNVTDPSLSEMVVVAIQILRKNPKGFFLLVEGGRIDHGHHEGKAKQALHEAVEMDRAIGQAGSLTSSEDTLTVVTADHSHVFTFGGYTPRGNSIFGLAPMLSDTDKKPFTAILYGNGPGYKVVGGERENVSMVDYAHNNYQAQSAVPLRHETHGGEDVAVFSKGPMAHLLHGVHEQNYVPHVMAYAACIGANLGHCAPAS
Take B1: the “Growth and fertility compared to untreated knock-out animals” value is “better growth and normal fertility”; the “Length of life compared to untreated knock-out animals” value is recorded as “longer lives”. Moreover, for the setting “after 6 months”, the “Bone findings after 6 months” value is “hypomineralization and abnormal proliferative chondrocytes presented”.
